Measurements taken from a protein production outcome set (Wang et al. 2014).

Assay: label from the status in PepcDB records

Sequence	protein production
MTQQTFLVEIGTEELPPKALRSLAESFAANFTAELNNANLPYGEVIWYAAPRRLALKVTNLSATQADREVEKRGPAIAQAFDAEGKPSKAAEGWARGCGITVDQAERLVTDKGEWLLYRAHVKGQSAQLLLAGMVNTALSKLPIPKLMRWGDKDTQFVRPVHTVTMLLGSEVIPGTVLGIDSDRIIRGHRFMGEPEFTLDNADQYPQVLQERGKVIADYELRKAIIKRDAELAAQKIGGVADLSESLLEEVASLVEWPVVLTAKFEEKFLAVPAEALVYTMKGDQKYFPVYDTAGNLLPNFIFVANIESKDPQQIISGNEKVVRPRLADAEFFFKTDRKKRLEDNLPRLETVLFQQQLGTLRDKTDRIQALAGWVAAQIGADVNHATRAGLLSKCDLMTNMVFEFTDTQGVMGMHYARHDGEAEDVAVALNEQYQPRFAGDDLPSNPVACALAIADKMDTLAGIFGIGQHPKGDKDPFALRRAALGVLRIIVEKNLPLDLQTLTEEAVRLYGSKLTNTKVVDEVIEFMLGRFRAWYQDEGHSVDTIQAVLARRPTRPADFDARVKAVTYFRTLDAAAALAAANKRVSNILAKSTDKLNDHVRASVLKEPAELKLATHLVVLRDKLEPVFAAGQYQEALVELAALRETVDEFFESVMVMDEDDAVRVNRLTLLSKLRELFLQVADISLLQ	not failed
MTQRAGIHPSARRPSAFDPPIGCARPAMTDTLSLRPIVGRRRLWELDPHFHCSIVGTCLTMSDLRKLATKTRLSVPADAPDYRLHGVFVRAAGAAGPAEKGIAKLMDKDLERRHTRALAQFRKAADNDALEALWDGAREAGDIPGPYWALMCHPLASRTLLERAFGEVHMLSHLMGAANRADVRRLAEMERETEAVEDRLAEAEARRLREIEIKQGEIGQLRAAIEAERARTRALVRRLEEAGEGGCRDLRIQTLEATMEGLRERLNREAWRADRLQGKLAEAERLLTEVRADRDDLRRRLAEQAEDLRTLEDLALDDDGEAGDRPPLDLGGRTILYVGGRPRTVPSLRKLVEDSNGRFAHHDAGREDGRAHLGEVLSGADIVICPVDCISHDACLKAKRACLKRGTPFVPLSSAGLGAFARCLRETAPLFAPANDGAALAAELEHHHHHH	failed
MTQRKVYAPVPVMVAGIAIIATRFLGILLLVWELGLSDLSGWIGSNAEAWDSTLVLLLSLIIVGVEIRCGFAVLAGVNWGRWGYIACQGVVVCYLLLASLSEFMPAIFHISGENHAAVLHQLLMQKIPDLLVIVLLFLPRRSKRFFLRQK	failed
MTQRPRQDERAKDVWFEYVLTAGRFSAWPIRWQGWLATALLIVGPITGMMAIAKLAPGVPPFVLVLGAMTVCFGTVFPLAYFKGRPAKSRG	failed
MTQTDRPCLAALVILILLQLIMLFSLFAGVPPHPPIATPLFGIGPFIGASVSAAIAAIVLGESRAARVLALLAVLGALVSFGPQKYLDPQFPLIWPAVIAAQLAAITVLVRLLPALSRQDA	failed
MTQTVDIENTDNVLSRRDSNAETQQMLRQRFETQPDLMPAQLASELGIAELEVVTALPQAQRVFLPLAHMDELLQSLPEWGSLTTIVMLSGSVFEFKGDFPQGKFAHGYYNLYSKGDGLHGHLKLDGMRAIALISRPFRGSESHSINFFGPQGEVVFKVYLGRDKQRVLFPDQVRRFKALAATFAD	failed
MTRFNRFRRTLMQWTGSLPLLGALPLSKLAQAQGAEQPAASGTPPAGGTRAPRFAYVGTYTFDAPGGTAGGPPARGIYVLAPRGDAWSQAQVVESANPSFLAVHPNQRCLYAINEIDVYEGRATGTAEAYAIDPRDGRLTLLNRQPLSLSGTIPAHVAVSPDGQHLAVALYGGGAYNVLPIGADGRLGSVSGLFKDTGSGPDTARQEAPHAHMVLFDPTGRHILGTDLGTDRINVFALEDGKLTPRDRAQLKPGGGPRHLALHPSGKLLYVISELDSTVACHGYDPATGRVLDERQRIATTPADYTGQKSGAALVMHPSGRFLYASNRRLKSEHPLADSIAAFSIDPASGRLAALQYWSEGLRFPRALTMADDGRHLYALSQKGDTILRLRIDDATGRLDQPAVVSNVPTPVCLVFAG	failed
MTRIASHRGGTLEFGDSTPHGFTATAAMALEEVEFDLHPTADGAIVVHHDPTLDATTDMTGAIVDMTLAKVKTATIRYGAGSHPMTLEELCALYVDSHVNFRCEIKPGVDGLPYEGFVALVIAGLERHSMLERTTFSSFLLASMDELWKATTRPRLWLVSPSVLQQLGPGAVIETAIAHSIHEIGVHIDTADAGLMAQVQAAGLDFGCWAAHTPSQITKALDLGVKVFTTDRPTLAIALRTEHRMEASV	not failed
